Measurements published in patent US20220177587A1, “METHODS AND USES OF VARIANT CD80 FUSION PROTEINS AND RELATED CONSTRUCTS” (Alpine Immune Sciences, Inc., priority 2018, published 2022).

B1: variant CD80 IgV-Fc Q33L/E35D/M47I/L85Q (Fc fusion)
chain: VIHVTKEVKEVATLSCGHNVSVEELAQTRIYWLKDKKMVLTMMSGDINIWPEYKNRTIFDITNNLSIVILALRPSDEGTYECVVQKYEKDAFKREHLAEVTLSVKAD
B2: variant CD80 IgV-Fc Y31S/E35D/M47L/T79L/E88G (Fc fusion)
chain: VIHVTKEVKEVATLSCGHNVSVEELAQTRISWQKDKKMVLTMMSGDLNIWPEYKNRTIFDITNNLSIVILALRPSDEGLYECVVLKYGKDAFKREHLAEVTLSVKAD
B3: variant CD80 IgV-Fc Q33L/E35D/M43I/L85Q/R94W (Fc fusion)
chain: VIHVTKEVKEVATLSCGHNVSVEELAQTRIYWLKDKKMVLTMISGDMNIWPEYKNRTIFDITNNLSIVILALRPSDEGTYECVVQKYEKDAFKWEHLAEVTLSVKAD
B4: variant CD80 IgV-Fc Q33L/E35D/M47L/A71G/F92S (Fc fusion)
chain: VIHVTKEVKEVATLSCGHNVSVEELAQTRIYWLKDKKMVLTMMSGDLNIWPEYKNRTIFDITNNLSIVILGLRPSDEGTYECVVLKYEKDASKREHLAEVTLSVKAD
B5: variant CD80 IgV-Fc H18Y/E35D/V68M/L97Q (Fc fusion)
chain: VIHVTKEVKEVATLSCGYNVSVEELAQTRIYWQKDKKMVLTMMSGDMNIWPEYKNRTIFDITNNLSIMILALRPSDEGTYECVVLKYEKDAFKREHQAEVTLSVKAD
B6: variant CD80 IgV-Fc H18L/V22A/E35D/M47L/N48T/L85Q (Fc fusion)
chain: VIHVTKEVKEVATLSCGLNVSAEELAQTRIYWQKDKKMVLTMMSGDLTIWPEYKNRTIFDITNNLSIVILALRPSDEGTYECVVQKYEKDAFKREHLAEVTLSVKAD
B7: variant CD80 IgV-Fc Q33L/E35D/T41S/M43I (Fc fusion)
chain: VIHVTKEVKEVATLSCGHNVSVEELAQTRIYWLKDKKMVLSMISGDMNIWPEYKNRTIFDITNNLSIVILALRPSDEGTYECVVLKYEKDAFKREHLAEVTLSVKAD
B8: variant CD80 IgV-Fc Q33L/E35D/M47V/L85Q (Fc fusion)
chain: VIHVTKEVKEVATLSCGHNVSVEELAQTRIYWLKDKKMVLTMMSGDVNIWPEYKNRTIFDITNNLSIVILALRPSDEGTYECVVQKYEKDAFKREHLAEVTLSVKAD
B9: variant CD80 IgV-Fc E35D/M47I/E77A/L85Q/R94W (Fc fusion)
chain: VIHVTKEVKEVATLSCGHNVSVEELAQTRIYWQKDKKMVLTMMSGDINIWPEYKNRTIFDITNNLSIVILALRPSDAGTYECVVQKYEKDAFKWEHLAEVTLSVKAD
B10: variant CD80 IgV-Fc V22A/R29H/E35D/D46E/M47I (Fc fusion)
chain: VIHVTKEVKEVATLSCGHNVSAEELAQTHIYWQKDKKMVLTMMSGEINIWPEYKNRTIFDITNNLSIVILALRPSDEGTYECVVLKYEKDAFKREHLAEVTLSVKAD
B11: variant CD80 IgV-Fc H18Y/V20A/Q33L/E35D/M47V/Y53F (Fc fusion)
chain: VIHVTKEVKEVATLSCGYNASVEELAQTRIYWLKDKKMVLTMMSGDVNIWPEFKNRTIFDITNNLSIVILALRPSDEGTYECVVLKYEKDAFKREHLAEVTLSVKAD
B12: variant CD80 IgV-Fc E7D/E35D/M47I/L97Q (Fc fusion)
chain: VIHVTKDVKEVATLSCGHNVSVEELAQTRIYWQKDKKMVLTMMSGDINIWPEYKNRTIFDITNNLSIVILALRPSDEGTYECVVLKYEKDAFKREHQAEVTLSVKAD
B13: variant CD80 IgV-Fc V22A/E23D/Q33L/E35D/M47V (Fc fusion)
chain: VIHVTKEVKEVATLSCGHNVSADELAQTRIYWLKDKKMVLTMMSGDVNIWPEYKNRTIFDITNNLSIVILALRPSDEGTYECVVLKYEKDAFKREHLAEVTLSVKAD
B14: variant CD80 IgV-Fc Q33K/E35D/D46V/L85Q (Fc fusion)
chain: VIHVTKEVKEVATLSCGHNVSVEELAQTRIYWKKDKKMVLTMMSGVMNIWPEYKNRTIFDITNNLSIVILALRPSDEGTYECVVQKYEKDAFKREHLAEVTLSVKAD
B15: variant CD80 IgV-Fc Q27H/Q33L/E35D/M47V/N55D/L85Q/K89N (Fc fusion)
chain: VIHVTKEVKEVATLSCGHNVSVEELAHTRIYWLKDKKMVLTMMSGDVNIWPEYKDRTIFDITNNLSIVILALRPSDEGTYECVVQKYENDAFKREHLAEVTLSVKAD
B16: variant CD80 IgV-Fc A26E/E35D/M43T/M47L/L85Q/R94Q (Fc fusion)
chain: VIHVTKEVKEVATLSCGHNVSVEELEQTRIYWQKDKKMVLTMTSGDLNIWPEYKNRTIFDITNNLSIVILALRPSDEGTYECVVQKYEKDAFKQEHLAEVTLSVKAD
B17: variant CD80 IgV-Fc Q33L/E35D/M47I/T62N/L85Q (Fc fusion)
chain: VIHVTKEVKEVATLSCGHNVSVEELAQTRIYWLKDKKMVLTMMSGDINIWPEYKNRTIFDINNNLSIVILALRPSDEGTYECVVQKYEKDAFKREHLAEVTLSVKAD

Legend:
[1] = target: human CTLA-4 (human) (UniProt P16410); assay: flow cytometry, CHO cells expressing huCTLA4
Sequence of human CTLA-4 (human) (P16410 36-223): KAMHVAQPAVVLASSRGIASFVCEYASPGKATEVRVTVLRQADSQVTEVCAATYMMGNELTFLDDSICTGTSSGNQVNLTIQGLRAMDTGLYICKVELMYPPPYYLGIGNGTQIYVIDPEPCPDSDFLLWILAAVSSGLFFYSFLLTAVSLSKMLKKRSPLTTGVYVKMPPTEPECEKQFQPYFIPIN

[2] = target: human PD-L1 (human) (UniProt Q9NZQ7); assay: flow cytometry, CHO cells expressing huPD-L1
Sequence of human PD-L1 (human) (Q9NZQ7 19-290): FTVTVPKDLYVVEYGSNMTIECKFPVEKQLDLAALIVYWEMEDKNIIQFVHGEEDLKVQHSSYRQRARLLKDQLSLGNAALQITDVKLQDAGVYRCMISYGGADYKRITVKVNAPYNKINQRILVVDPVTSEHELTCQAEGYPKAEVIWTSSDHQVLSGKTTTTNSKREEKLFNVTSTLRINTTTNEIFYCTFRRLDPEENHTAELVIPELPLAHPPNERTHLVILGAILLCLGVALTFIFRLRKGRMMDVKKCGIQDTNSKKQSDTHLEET

[3] = target: CD28 (human) (UniProt P10747); assay: flow cytometry, Jurkat/IL2 reporter cells (endogenous CD28)
[4] = target: human CTLA-4 (human) (UniProt P16410); assay: flow cytometry, CHO cells expressing huCTLA4; MFI ratio to WT CD80 ECD-Fc (R&D)
[5] = target: human PD-L1 (human) (UniProt Q9NZQ7); assay: flow cytometry, CHO cells expressing huPD-L1; MFI ratio to WT CD80 ECD-Fc (R&D)
[6] = target: human PD-L1 (human) (UniProt Q9NZQ7); assay: flow cytometry; binding to PD-L1 cells against binding of the same variant to CD28 cells
[7] = target: CD28 (human) (UniProt P10747); assay: flow cytometry, Jurkat/IL2 reporter cells (endogenous CD28); MFI ratio to WT CD80 ECD-Fc (R&D)

Binder | MFI at 33.3 nM [1] [MFI] | MFI at 33.3 nM [2] [MFI] | MFI at 33.3 nM [3] [MFI] | Fold change to WT CD80 [4] [fold] | Fold change to WT [5] [fold] | Ratio of PDL1:CD28 [6] | Fold change to WT [7] [fold]
B1 | 20500 | 63900 | 287 | 0.11 | 8.05 | 222 | 0.04
B2 | 1100 | 38900 | 278 | 0.01 | 4.9 | 140 | 0.04
B3 | 1080 | 29000 | 272 | 0.01 | 3.65 | 107 | 0.04
B4 | 2110 | 28000 | 366 | 0.01 | 3.53 | 77 | 0.05
B5 | 173000 | 122000 | 299 | 0.97 | 15.3 | 407 | 0.04
B6 | 374000 | 98100 | 434 | 2.09 | 12.3 | 226 | 0.06
B7 | 6390 | 44900 | 433 | 0.04 | 5.66 | 104 | 0.06
B8 | 75400 | 47400 | 268 | 0.42 | 5.97 | 177 | 0.04
B9 | 247000 | 64500 | 272 | 1.38 | 8.12 | 238 | 0.04
B10 | 77400 | 25400 | 323 | 0.43 | 3.2 | 79 | 0.04
B11 | 2880 | 121000 | 260 | 0.02 | 15.2 | 463 | 0.03
B12 | 271000 | 14600 | 273 | 1.52 | 1.84 | 54 | 0.04
B13 | 3640 | 75500 | 274 | 0.02 | 9.51 | 275 | 0.04
B14 | 8510 | 26700 | 257 | 0.05 | 3.36 | 104 | 0.03
B15 | 56100 | 14800 | 269 | 0.31 | 1.86 | 55 | 0.04
B16 | 278000 | 68100 | 260 | 1.56 | 8.57 | 262 | 0.03
B17 | 1660 | 72600 | 284 | 0.01 | 9.14 | 256 | 0.04
